{
  "source": "patent US20250313627A1",
  "about": "(FUSE BIOTHERAPEUTICS, published 2025)",
  "key": {"[1]": {"molecular_target": "T1, cynomolgus (NHP) CD3 on cynomolgus pan-T cells (cynomolgus)", "T1 construct": "whole, on cells; also called cynomolgus CD3", "test": "flow cytometry on cynomolgus pan-T cells", "experimental": "(§1) The CD3-specific Fab binding arm is presumed responsible for the observed binding. A Hen Egg Lysozyme (HEL)-specific antibody was used as the negative isotype control. Binding was measured via flow cytometry at various concentrations of test articles using a fluorescently labeled secondary antibody specific for the Fc domain of IgG1. The apparent affinity calculated for each test subject based on the data is shown under each graph. […] Binding to mouse CD3 was not tested because the anti-CD3 clone, 1F3-3, incorporated into the TCE is a humanized variant of clone SP34, which was derived in mouse and is well described as not binding mouse CD3.\n(§2) Adherent target cells were collected by brief TrypLE treatment while suspension cells were directly collected. Collected cells were washed once with PBS by centrifugation at 500×g for 5 minutes at room temperature and added to V-bottom 96-well plate (200,000-300,000 cells per well). To prepared Live/Dead fixable red, one vial of powder was dissolved into 50 uL of DMSO to make stock solution and then diluted 1 uL of stock Live/Dead fixable red in 1 mL of PBS to prepare the working solution. 100 uL of Live/Dead fixable red working buffer was then added to the cell in the V-bottom 96-well plate (200,000-300,000 cells per well) and incubated for 15 minutes at room temperature. […] The samples were then analyzed on Cytek flow cytometer."}, "[2]": {"molecular_target": "T2, mouse ROR1 on mouse 4T1 cells (mouse, UniProt Q9Z139 30-937)", "T2 construct": "whole, on cells", "T2 sequence (Q9Z139 30-937)": "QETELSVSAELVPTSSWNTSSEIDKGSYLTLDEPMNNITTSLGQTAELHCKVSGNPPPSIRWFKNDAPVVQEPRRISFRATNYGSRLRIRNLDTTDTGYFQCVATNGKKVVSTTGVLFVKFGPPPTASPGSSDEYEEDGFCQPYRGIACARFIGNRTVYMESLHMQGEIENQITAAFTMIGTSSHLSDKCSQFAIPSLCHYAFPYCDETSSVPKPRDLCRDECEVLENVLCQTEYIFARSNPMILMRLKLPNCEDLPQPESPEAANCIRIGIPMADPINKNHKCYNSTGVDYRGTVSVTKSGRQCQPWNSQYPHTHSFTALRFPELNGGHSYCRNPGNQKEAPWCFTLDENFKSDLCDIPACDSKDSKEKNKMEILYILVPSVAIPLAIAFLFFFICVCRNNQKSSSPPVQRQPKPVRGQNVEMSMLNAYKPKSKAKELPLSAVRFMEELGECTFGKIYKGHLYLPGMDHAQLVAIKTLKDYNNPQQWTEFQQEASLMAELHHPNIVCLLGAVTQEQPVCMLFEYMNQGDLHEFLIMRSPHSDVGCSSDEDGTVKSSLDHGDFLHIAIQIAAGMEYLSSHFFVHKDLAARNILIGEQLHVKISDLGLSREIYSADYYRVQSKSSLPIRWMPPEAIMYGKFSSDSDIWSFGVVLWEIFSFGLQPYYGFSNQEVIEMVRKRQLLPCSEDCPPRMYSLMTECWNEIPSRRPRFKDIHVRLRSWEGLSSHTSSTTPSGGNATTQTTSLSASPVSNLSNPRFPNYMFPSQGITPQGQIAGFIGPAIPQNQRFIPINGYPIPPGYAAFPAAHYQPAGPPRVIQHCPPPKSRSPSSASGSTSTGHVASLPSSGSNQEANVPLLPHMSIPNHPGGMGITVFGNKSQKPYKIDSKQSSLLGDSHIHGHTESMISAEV", "test": "flow cytometry on 4T1 cells expressing mouse ROR1"}, "[3]": {"molecular_target": "T3, human ROR1 (Receptor Tyrosine Kinase-Like Orphan Receptor 1) on the cell surface (human, UniProt Q01973 30-937)", "T3 construct": "whole, on cells; engineered into B16-F10 (high density) and LS174T (low density) cells; also called B16-F10-ROR1-H; LS174T-ROR1-L", "T3 sequence (Q01973 30-937)": "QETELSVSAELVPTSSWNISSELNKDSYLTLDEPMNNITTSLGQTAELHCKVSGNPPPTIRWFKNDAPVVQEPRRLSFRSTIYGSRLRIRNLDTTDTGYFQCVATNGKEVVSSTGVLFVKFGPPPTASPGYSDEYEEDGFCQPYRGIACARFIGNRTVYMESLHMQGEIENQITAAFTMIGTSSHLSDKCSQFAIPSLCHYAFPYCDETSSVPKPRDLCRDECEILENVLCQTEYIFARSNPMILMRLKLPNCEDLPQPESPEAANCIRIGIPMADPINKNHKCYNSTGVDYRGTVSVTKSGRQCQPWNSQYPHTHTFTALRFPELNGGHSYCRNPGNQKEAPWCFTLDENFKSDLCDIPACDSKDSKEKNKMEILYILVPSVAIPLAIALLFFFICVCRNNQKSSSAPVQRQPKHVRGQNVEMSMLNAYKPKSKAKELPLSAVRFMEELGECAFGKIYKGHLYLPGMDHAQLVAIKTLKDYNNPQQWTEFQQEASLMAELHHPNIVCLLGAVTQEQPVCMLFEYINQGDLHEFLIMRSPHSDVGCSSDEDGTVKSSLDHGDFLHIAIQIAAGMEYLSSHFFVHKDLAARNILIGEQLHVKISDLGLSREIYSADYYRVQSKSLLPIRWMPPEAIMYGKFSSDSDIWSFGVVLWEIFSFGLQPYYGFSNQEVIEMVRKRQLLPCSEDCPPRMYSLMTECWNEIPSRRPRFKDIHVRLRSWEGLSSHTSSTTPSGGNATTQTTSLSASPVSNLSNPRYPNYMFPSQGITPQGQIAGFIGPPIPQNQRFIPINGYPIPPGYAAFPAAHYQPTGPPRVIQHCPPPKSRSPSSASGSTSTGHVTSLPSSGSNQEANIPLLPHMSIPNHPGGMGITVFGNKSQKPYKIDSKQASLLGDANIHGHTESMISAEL", "test": "flow cytometry on MDA-MB-231 variants, low ROR1 density; low cell surface density of ROR1", "experimental": "(§3) Binding of 2A11 (black line), 5A1 (dark grey line) and VHH8 (medium grey line) were tested in TCE format 12A. The commercial ROR1 specific Ab reported to bind the ROR1-Ig domain 2A2 (light grey line), served as the positive control and anti-HEL (dotted black line) served as the negative control. To better visualize binding of each test article to the three cells lines, we plotted MFI on the y-axis for each test article for HEK-293 cells (negative control; FIG. 4I), HEK-293 cells transfected with full length human ROR1 (FIG. 4J) and HEK-293 cells transfected with the ROR1 Ig domain linked to the cell surface via the GPI linker from CD59 (FIG. 4K).\nas §2"}, "[4]": {"molecular_target": "T4, recombinant His tagged human ROR1 (human, UniProt Q01973 30-403, limits assumed)", "T4 construct": "Analyte in the BLI assay; also called Human ROR1-His; recombinant ROR1", "T4 sequence (Q01973 30-403 limits assumed)": "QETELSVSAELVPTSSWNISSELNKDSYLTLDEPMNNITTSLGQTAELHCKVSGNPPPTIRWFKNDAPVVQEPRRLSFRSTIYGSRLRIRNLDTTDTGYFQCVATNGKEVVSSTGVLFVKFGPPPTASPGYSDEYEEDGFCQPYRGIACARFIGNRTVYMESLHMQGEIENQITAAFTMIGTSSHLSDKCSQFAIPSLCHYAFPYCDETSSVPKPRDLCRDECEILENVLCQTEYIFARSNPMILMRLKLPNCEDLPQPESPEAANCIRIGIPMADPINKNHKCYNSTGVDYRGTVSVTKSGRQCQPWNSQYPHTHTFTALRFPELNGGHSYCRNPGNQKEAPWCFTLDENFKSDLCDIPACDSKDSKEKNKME", "test": "BLI (Octet), FUSE protein loaded on the biosensor, His tagged ROR1 in solution", "experimental": "(§4) As shown in FIGS. 5A-5D, the binding affinities (KD) of TCEs for ROR1 were assessed. We examined the magnitude by which several TCEs and mutants thereof bind to recombinant ROR1. Kinetic binding graphs were generated via Bio-Layer Interferometry (BLI) using an Octet system. For each TCE, the biosensor tips were coated with FUSE proteins at 15 μg/ml and probed with either recombinant His tagged ROR1 at concentrations ranging from 100 pM to 10 μM. […] The binding affinity (KD), on rate (k-on) and off rate (k-dis), are summarized for ROR1 in FIG. 5D.\n(§5) Antibodies were prepared in 1×PBS with 0.02% Tween-20 with the final concentration of 15 ug/ml. Human ROR1-His or CD3e-His protein were also prepared, and serial diluted (4-fold dilution ranging from 400 nM to 0.098 nM) in 1×PBS with 0.02% Tween-20. The biosensors were pre-moistened in 200 uL of 1×PBS with 0.02% Tween-20 for 10 minutes. Meanwhile, Octet BLI system (ForteBio) was prewarmed for 30 minutes and the flow rate was set to 1000 rpm. The biosensors (Anti-hIgG Fc Capture biosensor) were soaked in 250 uL of 1×PBS with 0.02% Tween-20 for 60 seconds at 30° C. to get an initial baseline reading. After the 60-second baseline reading, the biosensors were exposed to testing antibody for 300 seconds at 30° C. for the association between antibody and the biosensors (coupling antibody with biosensor). The biosensors with antibody were then exposed to human ROR1 or CD3e in 250 uL of 1×PBS with 0.02% Tween-20 at 30° C. for 300 seconds for the association reaction between antibody and human ROR1 or CD3e (association curve). After 300-second association reaction between antibody and antigen, the biosensors with antibody and antigen were then exposed to 250 uL of 1×PBS with 0.02% Tween-20 at 30° C. for 300 seconds for the dissociation reaction between antibody and […]. The binding affinity was calculated by the built-in data fitting algorithm."}, "[5]": {"molecular_target": "T3, human ROR1 (Receptor Tyrosine …)", "test": "flow cytometry on MDA-MB-231 variants, high ROR1 density; high cell surface density of ROR1", "experimental": "as §3, §2"}, "[6]": {"molecular_target": "T4, recombinant His tagged human ROR1", "test": "BLI (Octet), FUSE protein loaded on the biosensor, His tagged ROR1 in solution; column 'kdis(1/s)'", "experimental": "as §4, §5"}, "[7]": {"molecular_target": "T3, human ROR1 (Receptor Tyrosine …)", "test": "flow cytometry on MDA-MB-231 ROR1 low cells (about 17,000 ROR1 per cell), secondary antibody to the IgG1 Fc", "experimental": "as §3\nas §2, with “temperature. After the 15-minute incubation, the cells were washed twice with PBS by centrifugation at 500 g for 5 minutes at room temperature. The cells were then cultured with antibodies at different concentrations in 100 uL of Biolegend staining buffer at 4° C. for 45 minutes. After the 45-minute incubation with primary antibody, the cells were washed with PBS by centrifugation at 500 g for 5 minutes at room temperature. The cells were then cultured with PE-Cy7-conjugated mouse-anti-human IgG secondary antibody in Biolegend staining buffer at 4° C. for 45 minutes.” for “temperature.”"}, "[8]": {"molecular_target": "T3, human ROR1 (Receptor Tyrosine …)", "test": "flow cytometry on MDA-MB-231 ROR1 high cells (about 500,000 ROR1 per cell), secondary antibody to the IgG1 Fc", "experimental": "as §3\nas §2, with “temperature. After the 15-minute incubation, the cells were washed twice with PBS by centrifugation at 500 g for 5 minutes at room temperature. The cells were then cultured with antibodies at different concentrations in 100 uL of Biolegend staining buffer at 4° C. for 45 minutes. After the 45-minute incubation with primary antibody, the cells were washed with PBS by centrifugation at 500 g for 5 minutes at room temperature. The cells were then cultured with PE-Cy7-conjugated mouse-anti-human IgG secondary antibody in Biolegend staining buffer at 4° C. for 45 minutes.” for “temperature.”"}, "human CD3 on T cells [9]": {"molecular_target": "T5, human CD3 on T cells (human, UniProt P07766 23-207; P09693 23-182; P04234 22-171; P20963 22-164)", "T5 construct": "whole, on cells; also called human CD3 on Jurkat T cells; human CD3 on T cells isolated from human PBMC", "T5 sequence (P07766 23-207, chain 1 of 4)": "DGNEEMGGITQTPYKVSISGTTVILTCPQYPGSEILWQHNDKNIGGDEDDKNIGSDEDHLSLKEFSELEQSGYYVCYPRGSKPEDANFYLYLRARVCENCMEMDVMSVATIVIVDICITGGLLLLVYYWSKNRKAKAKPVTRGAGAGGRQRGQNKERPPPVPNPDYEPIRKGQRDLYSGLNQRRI", "T5 sequence (P09693 23-182, chain 2 of 4)": "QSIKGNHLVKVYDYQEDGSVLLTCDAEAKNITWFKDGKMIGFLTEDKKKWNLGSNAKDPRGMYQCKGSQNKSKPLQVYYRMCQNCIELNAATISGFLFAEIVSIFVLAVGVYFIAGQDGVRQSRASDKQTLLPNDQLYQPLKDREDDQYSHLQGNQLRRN", "T5 sequence (P04234 22-171, chain 3 of 4)": "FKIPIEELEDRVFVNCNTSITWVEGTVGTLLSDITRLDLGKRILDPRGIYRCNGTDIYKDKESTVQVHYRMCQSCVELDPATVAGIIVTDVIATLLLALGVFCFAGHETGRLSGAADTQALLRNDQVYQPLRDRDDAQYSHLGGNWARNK", "T5 sequence (P20963 22-164, chain 4 of 4)": "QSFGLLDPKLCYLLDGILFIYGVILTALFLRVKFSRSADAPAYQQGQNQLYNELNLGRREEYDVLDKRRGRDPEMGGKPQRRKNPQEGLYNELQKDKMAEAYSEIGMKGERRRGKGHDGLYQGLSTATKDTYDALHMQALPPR", "test": "flow cytometry on Jurkat T cells, fluorescent secondary antibody to the IgG1 Fc; table row 'Binding EC50 (Kd)'", "experimental": "as §1, §2"}, "[10]": {"molecular_target": "T3, human ROR1 (Receptor Tyrosine …)", "test": "flow cytometry on MDA-MB-231 ROR1 normal cells (about 35,000 ROR1 per cell), secondary antibody to the IgG1 Fc", "experimental": "as §3\nas §2, with “temperature. After the 15-minute incubation, the cells were washed twice with PBS by centrifugation at 500 g for 5 minutes at room temperature. The cells were then cultured with antibodies at different concentrations in 100 uL of Biolegend staining buffer at 4° C. for 45 minutes. After the 45-minute incubation with primary antibody, the cells were washed with PBS by centrifugation at 500 g for 5 minutes at room temperature. The cells were then cultured with PE-Cy7-conjugated mouse-anti-human IgG secondary antibody in Biolegend staining buffer at 4° C. for 45 minutes.” for “temperature.”"}, "[11]": {"molecular_target": "T3, human ROR1 (Receptor Tyrosine …)", "test": "flow cytometry on MDA-MB-231 ROR1 super high cells (about 2,000,000 ROR1 per cell), secondary antibody to the IgG1 Fc", "experimental": "as §3\nas §2, with “temperature. After the 15-minute incubation, the cells were washed twice with PBS by centrifugation at 500 g for 5 minutes at room temperature. The cells were then cultured with antibodies at different concentrations in 100 uL of Biolegend staining buffer at 4° C. for 45 minutes. After the 45-minute incubation with primary antibody, the cells were washed with PBS by centrifugation at 500 g for 5 minutes at room temperature. The cells were then cultured with PE-Cy7-conjugated mouse-anti-human IgG secondary antibody in Biolegend staining buffer at 4° C. for 45 minutes.” for “temperature.”"}, "[12]": {"molecular_target": "T1, cynomolgus (NHP) CD3 on cynomolgus …", "test": "flow cytometry on cynomolgus pan T cells, fluorescent secondary antibody to the IgG1 Fc; table row 'Binding EC50 (Kd)'", "experimental": "as §1, §2"}, "human CD3 on T cells [13]": {"molecular_target": "T5, human CD3 on T cells", "test": "flow cytometry on human pan T cells (T cells isolated from human PBMC), fluorescent secondary antibody to the IgG1 Fc; table row 'Binding EC50 (Kd)'", "experimental": "as §1, §2"}},
  "data": [
    {"binder": "FUSE-393 (bispecific antibody, human IgG1, lambda, L234A L235A, Hole chain: 5A1-linker-5A1-Fc; knob chain: anti-CD3 Fab heavy chain-Fc; anti-CD3 light chain; also called format 11A incorporating the 5A1 ROR1-specific VHH) QVQLQESGGGSVQAGGSLKLSCTASGYTNRLKCMGWFRQAPGKEREEIATISTGTGNTYYADSVKGRFTFSQDKVKNTVYLQMNTLKPDDTGMYYCAADVRPDGTTCHYNSGGQGTQVTVSSGGGGSGGGGSGGGGSQVQLQESGGGSVQAGGSLKLSCTASGYTNRLKCMGWFRQAPGKEREEIATISTGTGNTYYADSVKGRFTFSQDKVKNTVYLQMNTLKPDDTGMYYCAADVRPDGTTCHYNSGGQGTQVTVSSEPKSSDKTHTCPPCPAPEAAGGPSVFLFPPKPKDTLMISRTPEVTCVVVDVSHEDPEVKFNWYVDGVEVHNAKTKPREEQYNSTYRVVSVLTVLHQDWLNGKEYKCKVSNKALPAPIEKTISKAKGQPREPQVYTLPPSREEMTKNQVSLSCAVKGFYPSDIAVEWESNGQPENNYKTTPPVLDSDGSFFLVSKLTVDKSRWQQGNVFSCSVMHEALHNRFTQKSLSLSPGK heavy: EVQLVESGGGLVQPGGSLRLSCAASGFTFSTYAMNWVRQAPGKGLEWVARIRSKYNNYATYYADSVKDRFTISRDDSKNTLYLQMNSLRAEDTAVYYCARHGNFGNSYVSWFAYWGQGTMVTVSSASTKGPSVFPLAPSSKSTSGGTAALGCLVKDYFPEPVTVSWNSGALTSGVHTFPAVLQSSGLYSLSSVVTVPSSSLGTQTYICNVNHKPSNTKVDKKVEPKSCDKTHTCPPCPAPEAAGGPSVFLFPPKPKDTLMISRTPEVTCVVVDVSHEDPEVKFNWYVDGVEVHNAKTKPREEQYNSTYRVVSVLTVLHQDWLNGKEYKCKVSNKALPAPIEKTISKAKGQPREPQVYTLPPSREEMTKNQVSLWCLVKGFYPSDIAVEWESNGQPENNYKTTPPVLDSDGSFFLYSKLTVDKSRWQQGNVFSCSVMHEALHNHYTQKSLSLSPGK light: QAVVTQEPSLTVSPGGTVTLTCRSSTGAVTTSNYANWVQQKPGQAPRGLIGGTNKRAPGTPARFSGSLLGGKAALTLSGVQPEDEAEYYCALWYSNLWVFGGGTKLTVLGQPKAAPSVTLFPPSSEELQANKATLVCLISDFYPGAVTVAWKADSSPVKAGVETTTPSKQSNNKYAASSYLSLTPEQWKSHRSYSCQVTHEGSTVEKTVAPTECS", "values": [
      {"measurement": "fold difference in apparent binding affinity, cynomolgus against human CD3", "setting": "[1]", "value": "< 2", "unit": "fold"},
      {"measurement": "binding result", "setting": "[2]", "value": "no binding"},
      {"measurement": "EC50", "setting": "[3]", "value": "~300", "unit": "nM"},
      {"measurement": "Kd", "setting": "[4]", "value": 21.8, "unit": "nM"},
      {"measurement": "kon", "setting": "[4]", "value": 21500, "unit": "M⁻¹ s⁻¹"},
      {"measurement": "EC50", "setting": "[5]", "value": "~15", "unit": "nM"},
      {"measurement": "koff", "setting": "[6]", "value": 0.000468, "unit": "s⁻¹"},
      {"measurement": "EC50", "setting": "[7]", "value": 288, "unit": "nM"},
      {"measurement": "EC50", "setting": "[8]", "value": 26.5, "unit": "nM"},
      {"measurement": "EC50", "setting": "human CD3 on T cells [9]", "value": 3.34, "unit": "nM"},
      {"measurement": "EC50", "setting": "[10]", "value": 281, "unit": "nM"},
      {"measurement": "EC50", "setting": "[11]", "value": 16.3, "unit": "nM"},
      {"measurement": "EC50", "setting": "[12]", "value": 3.04, "unit": "nM"},
      {"measurement": "EC50", "setting": "human CD3 on T cells [13]", "value": 4.45, "unit": "nM"}
    ]}
  ]
}
